Data taken from the DeepSol protein solubility set.

Assay: soluble on expression in E. coli; label from the status in PepcDB or PDB records

Soluble on expression in E. coli, not soluble:
MKINNKLVGERIQNIRLSHGDSMEKFGEKFNTSKGTVNNWEKGRNLPNKENLLKIASIGKMSVEELLYGDYNTYLHLKIMDLAPECIKNYDEYNSLHDDITNKALQIAQNTISKIDYQISDETIKKFIDLAIEQSRDLQGNLLKNNLSNFDYSLFGGTRNREYFYFGYRLTYKEKYLYTALLAILNESTKTIYIDDINTARFFNFFGNDIPNSSLKKIDYIAPSEIVSFSTYVRQRSKVIPKILEHILKSSFLLENIDVSGYTVNILEDQLTKHRTIKISKN
MEKPTRLALLKEIAEFLNEETEIYSMMQGALRLLINGSDFSTGWIFYIDEEGHHDLVSSVDLPEALSKNHCYYLTNGSCWCVQAYQNHKLTKASNIINCSRINLANHAYDKETNHITHHATVPLQSGSERFGLLNVASPNKEHYSEEDLELLESVAFQIGSAIKRIQLTNKEKENAKINERNRLARDLHDSVNQMLFSLKLTAHAAKGITTDEQAQRAFKTIEETSQNAVNEMRALIWQLKPVGLEQGLIHALHYYSKMLGLDLKVTINGLIDLSNDIEENVYRIIQEAMNNVIKHAKTNKVYLDLSQNVDYLEVDIRDNGQGFDTQSINTFLFNGLKNIKQRTQYLNGKVTIESKINQGTRIYIKIPLKLKEHPYA
MPLGSLFDKTYDEMHCNQKSWEMAERQLMEDAVNVALQKNNLTKDDIDLLLAGDLLNQNVTANYVARHLKIPFLCMFGACSTSMETVAVASALVDGGFAKRALAATSSHNATAERQFRYPTEYGGQKPDTATSTVTGSGAVVISQTPGDIQITSATVGKVSDLGITDPFDMGSAMAPAAADTIKQHFKDLNRTADDYDLILTGDLSGVGSPIVKDILKEDGYPVGTKHDDCGLLIYTPDQQVFAGGSGCACSAVVTYSHIFKQLREGKLNRVFVVATGALLSPTMIQQKETIPTIAHGVVFERAGGASLEHHHHHH
MSLEKLAASTEPQGPRPVLGRESVQVPDDQDFRSFRSECEAEVGWNLTYSRAGVSVWVQAVEMDRTLHKIKCRMECCDVPAETLYDVLHDIEYRKKWDSNVIETFDIARLTVNADVGYYSWRCPKPLKNRDVITLRSWLPMGADYIIMNYSVKHPKYPPRKDLVRAVSIQTGYLIQSTGPKSCVITYLAQVDPKGSLPKWVVNKSSQFLAPKAMKKMYKACLKYPEWKEGHHHHHH
MFDRLLSQFGRKRVASESVATQQQLTDRTNVYTVKPQDPLLDKKQKMTPVQKVCLKCLAGESGHITHVLSSLSN
MGSDKIHHHHHHMKVKWSRDFSIKNMQLDKQHELIFEITNLANDLALNIQDNNTQHKNDLKQILVKLFQYIKIHFKDEEKFMESIDFPLIEEHKKSHQILVEKTKELLEHSNDIVKMSQELSILTKDWILDHFANEDLWIANFTKKTLHLQEIHYTLEQYIKLKSIKQDLRAEKTYDYICNCSLRIHAVPQTIHQELVSKENTLKCEKCGQILVHLDYFDLNQNFEKFNAIFEDALQNHHFTTQENDMRGGG
MEQHPIKINKVQIRNLQIEDYAQLSQSFTRVYSDGSDVFWTHAQIKKLISIFPEGQIVTVVDDKIVGCALSIILDYDKVKNDHTYAQVTGKETFNTHNPEGNILYGIEVFIHPGYRGLRLARRMYEYRKELCETLNLKAIMFGGRIPNYHKYADKMRPKEYIARVRQREIYDPVLTFQLSNDFHVRKVMTNYLPNDEESKHYACLLQWDNIYYQPPTQEYINPKTTVRVGLVQWQMRSYKTLDDLFEQVEFFVDAVSDYKSDFVLFPEYFNAPLMSKFNDKGESQAIRGLAKYTDEIRDRFINLAISYNINIITGSMPYVKEDGLLYNVGFLCRRDGTYEMYEKMHVTPDEIKSWGLSGGKLLQTFDTDCAKVGVLICYDVEFPELSRLMADQGMQILFVPFLTDTQNAYSRVRVCAQARAIENECFVVIAGCVGNLPRVHNMDIQYAQSGVFTPCDFAFPTDGKRAEATPNTEMILVSDVDLDLLNALHTYGSVRNLKDRRNDVYEVRFKK
MAHHHHHHMFLAATLDGVRSILSRIDPRQLHLYEIIREGSPCHLYLDVERESNHTALQHVIAVDDDSTSSSVEEADSLVQVEEDVGGTRRIVFQCCQSRYQELRRLAVRDPTDVCGLDCRIEPDNRNTCDVLLSALNSFVRDRHPSWVPPGLQAEGPGSVFADAWVLESVPLSGAATKFSQHYILKLHGRMFESTNSVKAFVRDFVAHVRERAAHDSQLHGALFFHKPPAWYPVFRELPLDYPRTTFPYLPRRCVIDEAVYSKNRMMRCVGSCKLGKQSVLLPYRHYVAGSCVEYFSNSANAASVSLDVFLSTLIAHRFAKDVAPVSLIKLTEEIEAPKNTRACALPASVSEGTAPATLHTVSLDVDIALLTSSLQRAYSQVANRACTVAQPHSLHGRFLSFSVRGTRYCQHIGREHKSNNVYLVVDTERMTFVQKCFDPDCASYRSPPRLLGGTP
MSLKFMYSALLGNPVEHSISDELFEYLNHNIGVLDEYKHKKILVDSVCLEDKIKHLINDPKCIGLNITLPYKREVMRYIDNLDRVAEITGSVNNIYKSGNIITGTNTDWKGIYNTLVFFNISHITKCCVLGTGGTARAAIFALQKLQISPTVVYREPISENTRSLIKSFPDLKYITYKELADQQILNDMEIIINTTPVGMINYEESLPINFDHLDNVNYKDKYFMDVVFNPLHTKLHEYFGKKGAKIIDGLWVLIFQGIEAFSLWSDKINDGKYFFSEGHHHHHH
MAHHHHHHMEQQGDSEAKEHGELTRNGITDNAYDNSVGAFNRTILDRYAHWMTQLDQGACGLRIWKAEELWKRYERVIRVGRGSFGSVFIVYDTERKAYLTVKCMELLGKPGPALRSLSQPTLREVILLSQIDHPNVVRLIDYYLTSDGMLHMCMPIVSHDLVSLIRIWKMRGPRGESSLGRMPLPTVKCVFRQLLRGLEYLHRRNIIHRDLKPSNVMLDDNGVVKIVDFGWARFVPRRWQGRLTGPPCVVTYRPPEILLGGQCSFKYDSSIDIWSAGCILYEMLTGGKAFSNARNEQQALAAITDMLGSPSSRSEVYYGAAGGSRLRPSKRQPRNFEERCRMVNMSNESIDFLGEMLQLEPNSRKSASQLLGHSWFSTSPLPCEPEEVSLPGSNTYRLLERKRTR
MGSDKIHHHHHHMVIFTQVVECGSFSGAAIATGHSNSYISKTLNKLEARVGVRLLNRTTRSISLTPEGQVYYEQCQQLVLDAHDAVSLLTQSHIEPKGVLKISCPTSFAENHLQEVMSAFMHQYPEVNLVLDLNDRHVDLVQDGFDLVIRATDKLAESSLVCRKIYSCKAYTVASHDYLKRFGLPQSPEQLSEHQCICYSNLKQANKWIYSHSNGTDNQVEVKAKLLCNSASMELAMVLAGHGICRLPAFVMEKELQDNKLAILFNDYITPTIDVYAIYPSRKHLSPKVRCFIDLLVDKMPRSLL
MGHHHHHHSHMPPHPAIFFYCLLRQGLTMLPRLVLNFWAQAVHLPRPPRVLGLQAGGTAPGQKKLFLTSHFPPASPLPLCFSLQQNFKKHSPRSPPGILGSLYPGFCSPIATSPFAKGTRGLRVVGSSGRLSASS

Soluble on expression in E. coli, soluble:
SSRKSGIGHEASLKRKAEEKLESYRKKIHMKNQAEEKAAEQFRMRLKNKQDEMKLEGDLRRSQRACQQLDVQKNIQVPREAWYWLRLEEETEEDEEEKEQDEDEYKSEDLSVLEKLQILTSYLREEHLYCIWCGTAYEDKEDLSSNCPGPTSADHD
MKAYAKKRISYMPSSPSQNVINFEEIETQKENILPLKEGRSAAALSKAIHQPLVEINQVKSSFEQRLIDELPALSDPITLYLEYIKWLNNAYPQGGNSKQSGMLTLLERCLSHLKDLERYRNDVRFLKIWFWYIELFTRNSFMESRDIFMYMLRNGIGSELASFYEEFTNLLIQKEKFQYAVKILQLGIKNKARPNKVLEDRLNHLLRELGENNIQLGNEISMDSLESTVLGKTRSEFVNRLELANQNGTSSDVNLTKNNVFVDGEESDVELFETPNRGVYRDGWENFDLKAERNKENNLRISLLEANTNLGELKQHEMLSQKKRPYDEKLPIFRDSIGRSDPVYQMINTKDQKPEKIDCNFKLIYCEDEESKGGRLEFSLEEVLAISRNVYKRVRTNRKHPREANLGQEESANQKEAEAQSKRPKISRKALVSKSLTPSNQGRMFSGEEYINCPMTPKGRSTETSDIISAVKPRQLTPILEMRESNSFSQSKNSEIISDDDKSSSSFISYPPQR
MGFKCGIVGLPNVGKSTLFNALTKAGIEAANYPFCTIEPNTGVVPMPDPRLDALAEIVKPERILPTTMEFVDIAGLVAGASKGEGLGNKFLANIRETDAIGHVVRCFENDDIVHVAGKIDPLDDIDTINTELALADLDSCERAIQRLQKRAKGGDKEAKFELSVMEKILPVLENAGMIRSVGLDKEELQAIKSYNFLTLKPTMYIANVNEDGFENNPYLDRVREIAAKEGAVVVPVCAAIESEIAELDDEEKVEFLQDLGIEEPGLNRVIRAGYALLNLQTYFTAGVKEVRAWTVSVGATAPKAAAVIHTDFEKGFIRAEVIAYEDFIQFNGENGAKEAGKWRLEGKDYIVQDGDVMHFRFNV
MPTLKYLPHYPPALVQQAQALFDSGELGALLRSKYPDGHDVQTDKALYQFVSALKQRHLKNAPLPAKVLYDNQQHPLKGTLGTNTTISRVQGGRLKSKSEIRIASLFRELPLPFLQMIVVHELAHLKVRDHDKAFYQLCCHMQPDYHQLEFDLRLWLNWREQRRNLEHHHHHH
MSLSKNNETLEALSKEYRDTIPADLRKTNTFDWYLQQLYDEPKIARNAHQRVADMFDYYGKSYDEEAGVVEYELASEDPLHDGENTFYGRVIHEAMHEFVNKVKSGARGLGPEKRIKLLLGPVGSGKSDFDRQVRRYFEDYTSRDEGRMYTFRWTNLCDVIHDQDPADDVVRSPMNQDPLVLLPQAQRDKVIEDINAELDAPYTIRNEQSLDPASEFYMDRLLAEYDDDLQAVLENHVEIVRFVADENQRRGIETFEPKDKKNQDETELTGDVNYSKIAIYGESDPRAFDYSGAFCNANRGIFSGEELLKLQREFLYDFLHASQEQTIKPKNNPRIDIDQVIVGRTNMPEYRDKKGDEKMEAFNDRTKRIDFPYVLQYEAEANIYQKMLRNADLPDIQVEPHTLEMAGLFGVLTRIEEPDNESIDLVQKAKAYNGEIDEADDVDVKKLREEAEKMADIGEGMDGVSPRFIGDEIAEAIMDSMHRSRDFLSPLTTFNHLEGNLENHGSIDEESFSKYYRFLELVREEYKERAIEDVRHALAYDMDEIQRQGEKYMDHVMAYIDDATVEDELTGREQEPDEQFLRSVEEKLNLPEDRKDDFRQEVSNWVSRRAREGDTFNPQDNDRLRRALERKLWEDKKHNINFSALVSSSEMDDEERNQWVDALIEQGYSEEGAKEVLEFAGAEVAKSEMEEEGHHHHHH
MTIAVDFDGTIVEHRYPRIGEEIPFAVETLKLLQQEKHRLILWSVREGELLDEAIEWCRARGLEFYAANKDYPEEERDHQGFSRKLKADLFIDDRNVGGIPDWGIIYEMIKEKKTFADIYSQQREENTSQKKKRKWLPF
MKDFKLAKSKSHAIEETKPFSILLMGVDTGSEHRKSKWSGNSDSMILVTINPKTNKTTMTSLERDVLIKLSGPKNNGQTGVEAKLNAAYASGGAEMALMTVQDLLDINVDYFMQINMQGLVDLVNAVGGITVTNKFDFPISIAANEPEYKAVVEPGTHKINGEQALVYSRMRYDDPEGDYGRQKRQREVIQKVLKKILALNSISSYKKILSAVSNNMQTNIEISSKTIPNLLAYKDSLEHIKSYQLKGEDATLSDGGSYQILTKKHLLAVQNRIKKELDKKRSKTLKTSAILYEDYYGLEHHHHHH
MDIYVCTVCGYEYDPAKGDPDSGIKPGTKFEDLPDDWACPVCGASKDAFEKQ
GEKGTTGTGNAALDNIFERKSVRTYLNKGVEKEKIDLMLRAGMSAPSGKDVRPWEFVVVSDRAKLDSMAAALPYAKMLTQARNAIIVCGDSARSFYWYLDCSAAAQNILLAAESMGLGAVWTAAYPYEDRMEVVRKYTHLPENILPLCVIPFGYPATKEQPKQKYDEKKIHYNQY
